Experimental data taken from patent US20160041181A1, “NMR ASSAY TO SCREEN PROTEIN-PROTEIN INTERACTION INHIBITORS” (RUTGERS, THE STATE UNIVERSITY OF NEW JERSEY, priority 2013, published 2016).
Non-standard residues stand in square brackets, D forms with d. No end group written: not given here.

Key:
Assay type in all cases: binding, influenza A/Udorn/307/1972 (H3N2)
NS1A ED [1] = biological target: T1, NS1A ED (Influenza A virus, UniProt P03495); conditions: 200 uM ED, 0, 50, 100, 200, 300 uM test peptide
T1 construct: made in house; host or cells: Escherichia coli BL21(DE3)-Gold, pET21_NESG vector
T1 sequence (P03495 85-215): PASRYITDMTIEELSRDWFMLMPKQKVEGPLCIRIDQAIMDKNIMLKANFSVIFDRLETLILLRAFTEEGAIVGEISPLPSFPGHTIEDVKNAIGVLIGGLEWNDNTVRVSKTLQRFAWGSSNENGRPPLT

NS1A ED [2] = biological target: T1, NS1A ED; assay: 1D 19F NMR assay of 5FW-labeled NS1A ED with designed peptide
Source text: In one exemplary embodiment, the candidate compound is a D-peptide having a sequence dN-Y-F-Y-S-L-F-dQ-G (see FIG. 14). The peptide has the ability to bind NS1A at the site normally used to sequester CPSF30. This same site on NS1A is also responsible for cooperative homodimerization interactions that contribute to an alternative cooperative mechanism by which ED:ED domain interactions contribute to the free energy for binding dsRNA by NS1A.
One-dimensional (1D) ^19F NMR spectroscopy was performed locked and at 20° C. on a Varian INOVA 500 MHz spectrometer equipped with a room temperature 5-mm ^1H/^19F switchable probe at a frequency of 470.18 MHz. All ^19F NMR spectra were acquired using VNMRJ 2.1B and referenced to external neat trichlorofluoromethane, CFCl3. Typical 1D ^19F NMR acquisition parameters were as follows: a 20,000 Hz sweep width (42.5 ppm), a 0.35 s acquisition time, a 5 s relaxation delay time, and a 5.0 μs 90° pulse length.
^19F NMR is an ideal assay for characterizing binding and inhibition of the NS1A protein. Using 1D ^19F NMR, it was possible to identify the binding location of a designed peptide according to its proximity to the nearest ^19F labeled Trp amino acids (see FIG. 16A vs. FIG. 16B).

NS1A ED [3] = biological target: T1, NS1A ED; assay: Dissociation constant for homodimerization of NS1A ED (dimer-monomer equilibrium); conditions: low salt pH 8 buffer

| Substance | exchange regime at the binding site (15N-1H HSQC) (NS1A ED [1]; binding site) | exchange regime at other residues of the ED (15N-1H HSQC) (NS1A ED [1]; other residues of the ED) | exchange regime of residue W187 (15N-1H HSQC) (NS1A ED [1]; residue W187) | 19F chemical shift change of the Trp102 and Trp203 resonances (NS1A ED [2]; Trp102 and Trp203, listed as dAsn-Tyr-Phe-Tyr-Ser-Leu-Phe-dGln-Gly) | 19F chemical shift change of the Trp102 and Trp203 resonances (NS1A ED [2]; Trp102 and Trp203, listed as dN-Y-F-Y-S-L-F-dQ-G) | 19F chemical shift change of the Trp187 resonance (NS1A ED [2]; Trp187, listed as dAsn-Tyr-Phe-Tyr-Ser-Leu-Phe-dGln-Gly) | 19F chemical shift change of the Trp187 resonance (NS1A ED [2]; Trp187, listed as dN-Y-F-Y-S-L-F-dQ-G) | Kd (NS1A ED [3]) |
| --- | --- | --- | --- | --- | --- | --- | --- | --- |
| dAsn-Tyr-Phe-Tyr-Ser-Leu-Phe-dGln-Gly ([dN]YFYSLF[dQ]G) [test peptide, designed D-amino acid capped peptide based on the CPSF30 helix …] | slow-exchange, indicative of strong binding | fast-exchange, or weak binding | slow-exchange indicative of tight binding | no significant impact | no chemical shift perturbations | strong ^19F chemical shift change | strong chemical shift perturbations |  |
| 5fW NS1A ED: NS1A effector domain biosynthetically labeled with 5-fluoro-tryptophan |  |  |  |  |  |  |  | 7 ± 5 µM |
